Results as given in patent US20220242948A1 (CARTEXELL, published 2022).

Key:
[1] = target: T1, mouse L1CAM (mL1CAM) protein fused with the Fc domain (R&D system, Cat No.5674-NC) (mouse, UniProt P11627 20-1123, limits assumed); test: monoclonal phage ELISA, plate coated with mL1CAM-Fc (3R clones), HRP-anti-M13, absorbance at 450 nm, cut-off 0.4
T1 construct: Bought protein; also called mL1CAM-Fc; antigen mL1CAM; not shown: Fc domain
Method: Specifically, the antigen mL1CAM protein was added to 96-well plates, incubated at 4° C. overnight, and then blocked with 2% MPBS at 37° C. for 2 hours. Since the antigen mL1CAM protein was fused with the Fc domain, Fc as an Fc control was also added to the 96-well plates, incubated at 4° C. overnight, and blocked with 2% MPBS at 37° C. for 2 hours. Then, the phages (up to 10¹¹ cfu) were added to the 96-well plates. After incubation at room temperature for 90 minutes, HRP-anti-M13 (Sino Biological, Cat No. 11973-MM05) was diluted in PBS to 1:5000, and added to 96-well plates. After incubation at room temperature for 1 hour, TMB substrate (Sigma, Cat No. T0440) and 2N H2504 (Merck, Cat No.100731) were sequentially added, and the absorbance (OD) at 450 nm was measured. As a result, when the absorbance (A450 nm) cut-off for the antigen mL1CAM was set to at least 0.4 for selection, one clone in the 2nd round, a total of 26 clones in the 3rd round, and a total of 9 clones in the 4th round specifically bound (positive) to the antigen mL1CAM in ELISA (FIG. 3).

[2] = target: T2, human L1CAM protein (hL1CAM, Sino biological, Cat No.10140-H08H) (human, UniProt P32004 20-1120); test: Octet, AR2G sensor, 3R-H8 loaded as ligand at 5 ug/ml (10 mM acetate pH 5.0), hL1CAM as analyte 0 ~ 200 nM in 1X PBS + 0.09% Tween
T2 construct: Bought protein used in the Octet assay; also called antigen hL1CAM
Method: (§1) The clone 3R-H8 showing the highest binding affinity among four types of anti-L1CAM scFv was subjected to a conversion procedure, thereby securing the whole IgG1 antibody. Through the Octet system (Forte Bio, Model No. QK384) using the purified whole IgG1 antibody, the antigen-antibody affinity was analyzed for the antigen hL1CAM (Sino biological, Cat No.10140-H08H) protein or mL1CAM (R&D, Cat No. 5674-NC) protein.

[3] = target: T2, human L1CAM protein (hL1CAM, Sino …); test: Octet, AR2G sensor, 3R-H8 loaded as ligand at 5 ug/ml (10 mM acetate pH 5.0), hL1CAM as analyte 0 ~ 200 nM in 1X PBS + 0.09% Tween; column head kdis(1/s)
Method: as §1

[4] = target: T2, human L1CAM protein (hL1CAM, Sino …); test: BLI, Octet system (Forte Bio QK384)
Method: as §1

[5] = target: T1, mouse L1CAM (mL1CAM) protein fused with …; test: BLI, Octet system (Forte Bio QK384)
Method: as §1

[6] = target: T1, mouse L1CAM (mL1CAM) protein fused with …; test: Octet, AR2G sensor, 3R-H8 loaded as ligand at 5 ug/ml (10 mM acetate pH 6.0), mL1CAM as analyte 0 ~ 100 nM in 1X PBS + 0.09% Tween
Method: as §1

[7] = target: T1, mouse L1CAM (mL1CAM) protein fused with …; test: Octet, AR2G sensor, 3R-H8 loaded as ligand at 5 ug/ml (10 mM acetate pH 6.0), mL1CAM as analyte 0 ~ 100 nM in 1X PBS + 0.09% Tween; column head kdis(1/s)
Method: as §1

T2 sequence (P32004 20-1120 limits assumed): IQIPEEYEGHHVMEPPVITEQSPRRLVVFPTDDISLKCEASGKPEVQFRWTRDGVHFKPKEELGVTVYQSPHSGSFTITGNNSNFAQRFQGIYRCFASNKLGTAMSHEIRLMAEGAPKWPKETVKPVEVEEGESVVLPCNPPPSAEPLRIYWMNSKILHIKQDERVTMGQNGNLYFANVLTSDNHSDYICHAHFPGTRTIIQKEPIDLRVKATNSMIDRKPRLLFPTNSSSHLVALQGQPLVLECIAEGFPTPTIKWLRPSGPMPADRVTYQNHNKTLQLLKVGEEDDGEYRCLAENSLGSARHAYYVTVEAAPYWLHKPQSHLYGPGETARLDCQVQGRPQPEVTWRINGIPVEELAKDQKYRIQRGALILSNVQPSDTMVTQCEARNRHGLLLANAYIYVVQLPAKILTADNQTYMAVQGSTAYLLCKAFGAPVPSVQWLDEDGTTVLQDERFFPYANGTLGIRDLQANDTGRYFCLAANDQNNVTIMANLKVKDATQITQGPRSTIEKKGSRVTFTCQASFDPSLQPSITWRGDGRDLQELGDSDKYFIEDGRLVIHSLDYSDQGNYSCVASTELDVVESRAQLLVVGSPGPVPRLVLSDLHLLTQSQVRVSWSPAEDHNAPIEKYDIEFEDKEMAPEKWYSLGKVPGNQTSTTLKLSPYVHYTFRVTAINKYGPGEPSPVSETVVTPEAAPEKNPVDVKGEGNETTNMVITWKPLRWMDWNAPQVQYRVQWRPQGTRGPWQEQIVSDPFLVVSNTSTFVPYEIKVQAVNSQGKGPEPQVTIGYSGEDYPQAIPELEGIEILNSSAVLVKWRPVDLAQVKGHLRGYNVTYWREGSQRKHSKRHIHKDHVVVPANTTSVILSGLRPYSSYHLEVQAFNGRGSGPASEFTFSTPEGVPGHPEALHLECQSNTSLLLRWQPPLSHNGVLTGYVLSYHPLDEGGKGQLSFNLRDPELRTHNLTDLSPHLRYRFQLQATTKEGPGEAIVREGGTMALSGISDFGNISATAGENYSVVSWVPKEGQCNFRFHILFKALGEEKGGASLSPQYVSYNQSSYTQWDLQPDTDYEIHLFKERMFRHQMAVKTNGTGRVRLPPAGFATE
T1 sequence (P11627 20-1123 limits assumed): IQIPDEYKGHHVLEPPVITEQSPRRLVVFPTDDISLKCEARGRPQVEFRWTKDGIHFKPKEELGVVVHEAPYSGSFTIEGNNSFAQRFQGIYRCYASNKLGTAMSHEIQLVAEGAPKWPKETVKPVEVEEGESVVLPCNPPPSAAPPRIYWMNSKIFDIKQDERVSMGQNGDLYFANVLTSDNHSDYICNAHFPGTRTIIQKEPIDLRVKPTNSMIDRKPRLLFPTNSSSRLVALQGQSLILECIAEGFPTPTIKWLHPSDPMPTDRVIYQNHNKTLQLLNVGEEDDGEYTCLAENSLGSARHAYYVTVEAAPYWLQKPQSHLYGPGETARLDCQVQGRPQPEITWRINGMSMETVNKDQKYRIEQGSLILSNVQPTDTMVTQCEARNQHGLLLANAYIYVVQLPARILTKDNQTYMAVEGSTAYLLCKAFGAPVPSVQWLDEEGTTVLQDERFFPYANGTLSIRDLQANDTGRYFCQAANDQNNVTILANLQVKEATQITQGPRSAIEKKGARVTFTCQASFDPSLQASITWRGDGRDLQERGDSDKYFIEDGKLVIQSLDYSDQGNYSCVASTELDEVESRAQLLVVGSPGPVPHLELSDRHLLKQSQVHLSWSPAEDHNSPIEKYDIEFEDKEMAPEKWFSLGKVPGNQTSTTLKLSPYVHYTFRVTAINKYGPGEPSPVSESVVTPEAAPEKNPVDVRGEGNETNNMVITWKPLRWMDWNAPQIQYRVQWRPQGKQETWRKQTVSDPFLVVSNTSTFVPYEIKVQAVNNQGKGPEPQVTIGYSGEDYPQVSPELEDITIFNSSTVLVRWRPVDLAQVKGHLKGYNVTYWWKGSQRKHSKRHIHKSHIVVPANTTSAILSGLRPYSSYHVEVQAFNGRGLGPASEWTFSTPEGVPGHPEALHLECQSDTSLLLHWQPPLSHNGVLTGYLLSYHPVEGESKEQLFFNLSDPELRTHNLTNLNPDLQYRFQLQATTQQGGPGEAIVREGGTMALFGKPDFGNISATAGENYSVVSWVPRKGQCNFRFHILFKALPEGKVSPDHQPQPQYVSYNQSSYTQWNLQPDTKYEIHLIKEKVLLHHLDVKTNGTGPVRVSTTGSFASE

B1: E7 (scFv)
scFv (VH-linker-VL): EVQLVESGGGLVQPGGSLRLSCAASGFTFSSYAMHWVRQAPGKGLEWVSAISSSGSSKYYADSVKGRFTISRDNSKNTLYLQINSLRAEDTAVYYCAKDESYGWLYAFDLWGQGTLVTVSSGGGGSGGGGSGGGGSDIQMTQSPSSLSASVGDRVTITCRASQSISNYLNWYQQKPGKAPKLLIYAASRLQSGVPSRFSGSGSGTDFTLTISSLQPEDFATYYCQQSYSFPLTFGQGTKVEIK
notes: also called mL1CAM-3R-E7; ID 4 group
- binding result [1]: binds

B2: G2 (scFv)
scFv (VH-linker-VL): EVQLVESGGGLVQPGGSLRLSCAASGFTFSSYAMHWVRQAPGKGLEWVSAISSSGSSKYYADSVKGRFTISRDNSKNTLYLQINSLRAEDTAVYYCAKDESYGWLYAFDLWGQGTLVTVSSGGGGSGGGGSGGGGSDIQMTQSPSSLSASVGDRVTITCRASQSISNYLNWYQQKPGKAPKLLIYAASRLQSGVPSRFSGSGSGTDFTLTISSLQPEDFATYYCQQSYSFPLTFGQGTKVEIK
notes: also called mL1CAM-3R-G2; ID 4 group
- binding result [1]: binds

B3: whole IgG1 antibody converted from clone 3R-H8 (antibody, V domains shown)
VH: EVQLVESGGGLVQPGGSLRLSCAASGFTFSDYAMNWVRQAPGKGLEWVSAISSTGSTIYYADSVKGRFTISRDNSKNTLYLQMNSLRAEDTAVYYCAKQSTYFYSYFDVWGQGTLVTVSS
VL: not shown
notes: also called 3R-H8 whole IgG1; mL1CAM-3R-H8 IgG1
- kon [2]: 57700 M⁻¹ s⁻¹
- koff [3]: 0.000239 s⁻¹
- Kd [4]: 4.14 nM
- Kd [5]: 20.5 nM
- kon [6]: 462000 M⁻¹ s⁻¹
- koff [7]: 0.00945 s⁻¹
